# Experimental data reported in patent US20060093670A1, “Sustained-release composition process for producing the same and preparation thereof” (priority 2002, published 2006).
# Assays:
# [1] = prior-art two-component apatite particles; cited from earlier work
# [2] = Entrapment of IFN on HAP (IFN in the washed solution); assay type: physicochemical; settings: 30 μg IFN on 45 mg HAP, 20 mM zinc acetate, washed with 1.5 ml water
# Method: (§1) 45 mg of porous hydroxyapatite (HAP) was accurately weighed. 30 μg of IFN from a 2.4 mg/ml interferon a (IFN) solution was added thereto, and the mixture was allowed to stand for 10 minutes. Then, 1 ml of a 20 mM/1 ml zinc acetate solution was added thereto, and the mixture was shaken for 30 minutes. This dispersion was washed by addition of 1.5 ml of water. When IFN in the washed solution was quantitatively determined, IFN was not detected. Specifically, all IFN was confirmed to be entrapped on HAP. In this manner, a microparticle preparation on which IFN as a protein was entrapped could be obtained without using an organic solvent. After the washing, 20 ml of a PBS solution containing FCS in an amount of 20% was added to the resulting powder, and the mixture was shaken at 37° C. for 16 hours. IFN eluted in the supernatant liquid was quantitatively determined to calculate the percent elution.
# [3] = Effect of Zn concentration on sustained release of IFN-HAp preparation (IFN α blood level, Example 3); assay type: in vivo, ddy mouse; settings: IFN α/HSA/CS in HAp, freeze-dried, subcutaneous, 4 hours and 1 to 7 days, FIG. 3
# Method: 0.06 ml of 0.937 mg/ml IFN α, 0.3 ml of 20 mg/ml HSA, 0.03 ml of 20 mg/ml CS, and 1.22 ml of H2O were added to prepare a solution. 200 mg of HAp sintered at 180° C. was added on this solution. A protein was entrapped in HAp by stirring, and then 10 ml of H2O was added. The mixture was lightly stirred and centrifuged at 3,000 rpm for five minutes.
# The deposit was freeze-dried and divided in two. 1 ml of a 20 mM Zn(CH3COO)2/5% mannitol solution was added to one division, while 1 ml of a 5 mM Zn(CH3COO)2/5% mannitol solution was added to the other division.
# As a control, 0.015 ml of 0.937 mg/ml IFN α, 0.075 ml of 20 mg/ml HSA, 0.66 ml of H2O and 0.25 ml of 20% mannitol were added to prepare an IFN α (free) solution.
# 0.7 ml of the sample prepared above was subcutaneously administered to a seven-week-old male ddy mouse (weight: 31 to 33 g, SLC, Japan). Four hours and one to seven days after the administration, blood was collected from the orbit of the mouse. The IFN α concentration in this blood was determined using an ELISA kit (Biosource).
# [4] = Percent elution of IFN entrapped onto HAP in PBS containing 20% FCS; assay type: physicochemical; settings: 37° C., 16 hours
# Method: as §1, with “Then, 1 ml of a 20 mM/1 ml zinc acetate solution was added thereto, and the mixture was shaken for 30 minutes.” left out
# [5] = IFN α blood level after subcutaneous administration of IFN α-HAp preparation (Example 2); assay type: in vivo, ddy mouse; settings: IFN α with HSA, chondroitin sulfate and Zn(CH3COO)2 in HAp sintered at 180° C., 4 hours and 1 to 10 days, ELISA, FIG. 2
# Method: 0.854 ml of 225 μg/ml IFN α (interferon α, Sumitomo Pharmaceuticals) and 1.2 ml of 20 mg/ml HSA were mixed to prepare a protein-mixed solution. 0.856 ml of the protein-mixed solution was mixed with 200 mg of HAp sintered at 180° C., and the mixture was stirred to entrap a protein in HAp. 0.05 ml of 20 mg/ml chondroitin sulfate (CS, from Wako), 0.074 ml of H2O, and 0.02 ml of 1 M Zn(CH3COO)2 were sequentially added thereto. The mixture was centrifuged at 15,000 rpm for five minutes. 2 ml of a 20 mM Zn(CH3COO)2/5% mannitol solution was added to the deposit to prepare a sample.
# As a control, 0.644 ml of H2O and 0.5 ml of 20% mannitol were added to 0.856 ml of an IFN α-containing protein-mixed solution to prepare an IFN α (free) solution.
# 0.5 ml of the sample prepared above was subcutaneously administered to an eight-week-old male ddy mouse (weight: 33 to 40 g, SLC, Japan). Four hours and one to ten days after the administration, blood was collected from the orbit of the mouse. The IFN α concentration in this blood was determined using an ELISA kit (Biosource).
# [6] = In vitro release test of G-CSF from HAp in PBS, embolized versus not embolized; assay type: physicochemical; settings: embolized (HSA, CaCl2, then Na2CO3) versus not embolized, room temperature, ELISA, FIG. 4
# Method: 100 μl of a preliminarily mixed solution of G-CSF (3 μg/ml), HSA (30 μg/ml), and CaCl2 (280 mg/ml) was added to 50 mg of HAp sintered at 180° C. The mixture was stirred using a vortex mixer for three minutes, allowed to stand for five minutes, and freeze-dried. 100 μl of a 220 mg/ml Na2CO3 solution was added to the resulting particles, and the mixture was stirred using a vortex mixer for three minutes. After further addition of 100 μl of water, the mixture was lightly stirred. A part of the mixture was collected for ELISA determination. The remaining part was centrifuged at 1,000 rpm for three minutes to collect the supernatant liquid. 2 ml of PBS was added to the deposit, and the mixture was lightly shaken at room temperature. After 0 hour and 0.5 hour, respectively, the supernatant liquid was collected. Further, 10 ml of PBS was added to the deposit, and the mixture was shaken at room temperature. After 0 hour and 0.5 hour, respectively, the supernatant liquid was collected. The final deposit and the supernatant liquids obtained on the way were subjected to determination using an ELISA kit (IBL). The final deposit was dissolved in 1% BSA/Tris-HCl (pH 5) and used for the ELISA determination. The results are shown in FIG. 4-A. 200 μl of a 1.5 μg/ml G-CSF solution was added to 50 mg of HAp to fill the pores, and 2 ml of PBS was added further. The same release test was conducted.
# [7] = Adsorption of G-CSF on hydroxyapatite preliminarily treated with zinc acetate; assay type: physicochemical; settings: for Amount of adsorbed G-CSF / Amount of free G-CSF: 10 mg hydroxyapatite bound with zinc
# Method: Then, the following procedure was conducted to attempt adsorption of zinc on hydroxyapatite particles and adsorption of G-CSF on the particles. 10 mg of hydroxyapatite was suspended in 200 μl of zinc acetate (5 mg/ml). The suspension was allowed to stand for 10 minutes at room temperature, and then centrifuged at 10,000 rpm for 10 minutes to discard the supernatant liquid. The precipitate was suspended in 500 μl of purified water. The suspension was allowed to stand for 10 minutes at room temperature, and then centrifuged at 10,000 rpm for 10 minutes to discard the supernatant liquid. After the sediment was suspended and centrifuged again, the supernatant liquid was discarded. This precipitate was suspended in 0.5 ml of a 200 μg/ml or 1,000 μg/ml G-CSF solution. The suspension was allowed to stand for 10 minutes, and then centrifuged at 10,000 rpm for 10 minutes. The amount of G-CSF in the supernatant liquid was determined by an ELISA method. Further, G-CSF entrapped in hydroxyapatite was eluted from the precipitate using 0.1 M EDTA and a 1% HAS solution, and the eluate was centrifuged. Then, the G-CSF concentration in the supernatant liquid was determined by an ELISA method to determine the amount of G-CSF adsorbed on hydroxyapatite.
# [8] = Adsorption of G-CSF on hydroxyapatite particles without zinc; assay type: physicochemical; settings: 40 mg hydroxyapatite particles, 100 μl of G-CSF solution (100 μg/ml), no zinc; eluted with pH 4 acetic acid buffer; ELISA
# Method: 40 mg of hydroxyapatite particles were immersed in 100 μl of a G-CSF solution (100 μg/ml) for 10 minutes. Then, 900 μl of purified water was added, and the mixture was stirred and centrifuged. Then, the supernatant liquid was discarded. Purified water was added to the precipitate again, and the mixture was stirred and centrifuged to remove the excessive G-CSF.
# The precipitate was suspended in a pH 4 acetic acid buffer to elute G-CSF. After centrifugation, the amount of G-CSF in the supernatant liquid was determined by ELISA to determine the amount of G-CSF adsorbed. Almost no adsorption was observed (0.1 μg or less).
# [9] = PC-BDNF blood level after subcutaneous administration of PC-BDNF-HAp preparation; assay type: in vivo, ddy mouse; settings: PC-BDNF in HAp sintered at 180° C. with HSA and 5 mM Zn(CH3COO)2/5% mannitol, 2 hours to 4 days, ELISA, FIG. 1
# Method: 66 μl of a 4.54 mg/ml PC-BDNF (lecithinized BDNF) solution was added to 20 mg of porous hydroxyapatite microparticles (HAp) sintered at 180° C., and the mixture was stirred using a vortex mixer for one minute. 434 μl of a 0.1% HSA solution was added thereto, and the mixture was stirred again for one minute. The mixture was allowed to stand for three minutes, and then centrifuged at 1,000 rpm for three minutes to remove the supernatant liquid. 500 μl of a 5 mM Zn(CH3COO)2/5% mannitol solution was added to the deposit, and the mixture was stirred to prepare a sample. As a control, a sample in which 66 μl of a 4.54 mg/ml PC-BDNF solution was mixed with 434 μl of 5% mannitol was also prepared. 500 μl of each sample was subcutaneously administered to a six-week-old male ddy mouse. Two hours, seven hours, 17 hours, one day, two days, and four days after the administration, blood was collected from the orbit to determine the PC-BDNF blood level using an ELISA kit (Promega).
molecule,measurement,setting,value
"hGH: human growth hormone, on prior-art apatite particles",Amount of hGH adsorbed on the apatite particles (entrapped amount),[1],≤ 1%
IFN α,IFN in the washed solution,[2],not detected
same,IFN α blood level,[3]; zinc 5 mM,"sufficiently increased, but was reduced comparatively rapidly"
same,IFN α blood level,[3]; zinc 20 mM,"not sufficiently increased, but IFN α was released slowly for a long time"
same,Eluted IFN (%),[4]; Zinc acetate 0 mM,92%
same,Eluted IFN (%),[4]; Zinc acetate 20 mM,87%
same,"IFN α concentration in blood, sustained-release effect",[5],excellent sustained-release effect
"G-CSF: G-CSF protein loaded into or adsorbed on hydroxyapatite microparticles (protein, UniProt P09919 31-207, looked up, adsorbed on hydroxyapatite microparticles) Granulocyte …: TPLGPASSLPQSFLLKCLEQVRKIQGDGAALQEKLVSECATYKLCHPEELVLLGHSLGIPWAPLSSCPSQALQLAGCLSQLHSGLFLYQGLLQALEGISPELGPTLDTLQLDVADFATTIWQQMEELGMAPALQPTQGAMPAFASAFQRRAGGVLVASHLQSFLEVSYRVLRHLAQP",Release of G-CSF from HAp,[6],release was remarkably suppressed
same,Amount of adsorbed G-CSF,[7]; total amount of G-CSF 100 μg,86.4 µg
same,Amount of free G-CSF,[7]; total amount of G-CSF 100 μg,0.4 µg
same,Amount of adsorbed G-CSF,[7]; total amount of G-CSF 500 μg,400.0 µg
same,Amount of free G-CSF,[7]; total amount of G-CSF 500 μg,90.0 µg
same,Maximum amount of G-CSF adsorbed,[7]; on 10 mg of hydroxyapatite,400 µg
same,Amount of G-CSF adsorbed,[8],≤ 0.1 µg
"PC-BDNF: lecithinized BDNF; tested entrapped in HAp with HSA and zinc acetate (PC-BDNF-HAp preparation) (conjugate, UniProt P23560 19-247, looked up, lecithinized; entrapped in hydroxyapatite) Neurotrophic factor BDNF …: APMKEANIRGQGGLAYPGVRTHGTLESVNGPKAGSRGLTSLADTFEHVIEELLDEDQKVRPNEENNKDADLYTSRVMLSSQVPLEPPLLFLLEEYKNYLDAANMSMRVRRHSDPARRGELSVCDSISEWVTAADKKTAVDMSGGTVTVLEKVPVSKGQLKQYFYETKCNPMGYTKEGCRGIDKRHWNSQCRTTQSYVRALTMDSKKRIGWRFIRIDTSCVCTLTIKRGR","PC-BDNF blood level, sustained-release effect",[9],excellent sustained-release effect
